# Experimental data as given in patent US10973857B2, “Mesenchymal stem cell and use thereof for treatment of muscle injury and muscle-associated diseases” (EXOSTEM BIOTEC LTD., priority 2016, dated 2021).
# B1: PDGFBB: growth factor (protein, UniProt P01127 82-190, looked up)
# Platelet-derived growth …: SLGSLTIAEPAMIAECKTRTEVFEISRRLIDRTNANFLVWPPCVEVQRCSGCCNNRNVQCRPTQVQLRPVQVRKIEIVRKKPIFKKATVTLEDHLACKCETVAAARPVT
# modifications: BB homodimer
# notes: growth factor
# B2: EGF: growth factor (protein, UniProt P01133 23-1207, looked up)
# Pro-epidermal growth factor: PQHWSCPEGTLAGNGNSTCVGPAPFLIFSHGNSIFRIDTEGTNYEQLVVDAGVSVIMDFHYNEKRIYWVDLERQLLQRVFLNGSRQERVCNIEKNVSGMAINWINEEVIWSNQQEGIITVTDMKGNNSHILLSALKYPANVAVDPVERFIFWSSEVAGSLYRADLDGVGVKALLETSEKITAVSLDVLDKRLFWIQYNREGSNSLICSCDYDGGSVHISKHPTQHNLFAMSLFGDRIFYSTWKMKTIWIANKHTGKDMVRINLHSSFVPLGELKVVHPLAQPKAEDDTWEPEQKLCKLRKGNCSSTVCGQDLQSHLCMCAEGYALSRDRKYCEDVNECAFWNHGCTLGCKNTPGSYYCTCPVGFVLLPDGKRCHQLVSCPRNVSECSHDCVLTSEGPLCFCPEGSVLERDGKTCSGCSSPDNGGCSQLCVPLSPVSWECDCFPGYDLQLDEKSCAASGPQPFLLFANSQDIRHMHFDGTDYGTLLSQQMGMVYALDHDPVENKIYFAHTALKWIERANMDGSQRERLIEEGVDVPEGLAVDWIGRRFYWTDRGKSLIGRSDLNGKRSKIITKENISQPRGIAVHPMAKRLFWTDTGINPRIESSSLQGLGRLVIASSDLIWPSGITIDFLTDKLYWCDAKQSVIEMANLDGSKRRRLTQNDVGHPFAVAVFEDYVWFSDWAMPSVMRVNKRTGKDRVRLQGSMLKPSSLVVVHPLAKPGADPCLYQNGGCEHICKKRLGTAWCSCREGFMKASDGKTCLALDGHQLLAGGEVDLKNQVTPLDILSKTRVSEDNITESQHMLVAEIMVSDQDDCAPVGCSMYARCISEGEDATCQCLKGFAGDGKLCSDIDECEMGVPVCPPASSKCINTEGGYVCRCSEGYQGDGIHCLDIDECQLGEHSCGENASCTNTEGGYTCMCAGRLSEPGLICPDSTPPPHLREDDHHYSVRNSDSECPLSHDGYCLHDGVCMYIEALDKYACNCVVGYIGERCQYRDLKWWELRHAGHGQQQKVIVVAVCVVVLVMLLLLSLWGAHYYRTQKLLSKNPKNPYEESSRDVRSRRPADTEDGMSSCPQPWFVVIKEHQDLKNGGQPVAGEDGQAADGSMQPTSWRQEPQLCGMGTEQGCWIPVSSDKGSCPQVMERSFHMPSYGTQTLEGGVEKPHSLLSANPLWQQRALDPPHQMELTQ
# modifications: Pro-epidermal growth factor
# Test system: MSCs
# Test: Protocol 3 differentiation of MSCs to hybrid cells with growth factors
# Type: cell-based
# Conditions: individually and in combination, as replacements or in combination with HGF and PDGF
# Description: A shortened third protocol (Protocol 3) was examined and was also found to produce MSC-muscle cell hybrid cells. The MSCs were cultured in normal MSC culturing conditions followed by supplementation of the media for 24 hours with 5-AZA. The cells were than grown in media supplemented with 2% horse serum and HGF and PDGF for 2 weeks. […] The following growth factors were tested both individually and in combination as replacements or in combination with HGF and PDGF: EGF, IGF1, PDGFAA, PDGFBB, and VEGF. […] Additionally, the protocol could be halted by moving the treated MSCs to non-supplemented MSC media. Hybrid cells that were produced could thus be halted from further differentiation.
# All three protocols were also performed with MSCs that had first undergone myogenic priming as described above.
row,Molecule,production of hybrid cells from MSCs
1,B1,found to produce hybrid cells
2,B2,found to produce hybrid cells
